The values below come from patent US20250340658A1 (TWIST BIOSCIENCE, published 2025).

In assay [1] the target is T1, full length human GLP-1R with N-terminal FLAG tag and C-terminal GFP tag, on CHO cells (human, UniProt P43220 24-463).
T1 construct: whole, on cells; the cell line itself is tied to UniProt P43220; also called FLAG-GLP-1R-GFP; CHO-GLP-1R
The experiment in a line: flow cytometry titration, CHO GLP1R cells. The protocol: (§1) GLP-1R IgG clones were tested in a binding assay coupled to flow cytometry analysis as follows: FLAG-GLP-1R-GFP expressing CHO cells (CHO-GLP-1R) and CHO-parent cells were incubated with 100 nM IgG for 1 h on ice, washed three times and incubated with Alexa 647 conjugated goat-anti-human antibody (1:200) (Jackson ImmunoResearch Laboratories, 109-605-044) for 30 min on ice, followed by three washes, centrifuging to pellet the cells between each washing step. All incubations and washes were in buffer containing PBS+1% BSA. […] Cells were analyzed by flow cytometry and hits (a hit is an IgG that specifically binds to CHO-GLP-1R) were identified by measuring the GFP signal against the Alexa 647 signal. Flow cytometry data of binding assays with 100 nM IgG are presented as dot plots. Analyses of binding assays with IgG titrations are presented as binding curves plotting IgG concentrations against MFI (mean fluorescence intensity).

For assay [2], the target named is T1, full length human GLP-1R with …. Nature of the assay: flow cytometry, GLP1R-expressing CHO cells. The protocol: as §1
A general note: Flow cytometry measures light scatter and fluorescence of single cells or particles in a stream.

For assay [3] the target is unchanged. Nature of the assay: flow cytometry, expressing vs parent CHO cells. The procedure: as §1
The target is the same in assay [4]. The experiment in a line: flow cytometry, expressing vs parent CHO cells. The procedure:
as §1
This is another data set of the same source.

Assay [5] shares this target. Nature of the assay: flow cytometry, expressing minus parent CHO cells. The procedure:
as §1

Broadly, the EC50 is the midpoint of the concentration-response curve.

Like-named read-outs stand apart in the source and are kept apart here.

B1: GLP1R-222-056 (antibody, V domains shown)
VH: QVQLVESGGGVVQPGRSLRLSCAASGFPFSSYAMHWVRQAPGKGLEWVAVISYDRSNKYYADSVKGRFTISRDNSKNTLYLQMNSLRAEDTAVYYCAKHMSMQEGAVTGYGQAAKEFIAWLVKGFVRADLVGDAFDVWGQGTLVTVSS
VL: QSVLTQPPSVSAAPGQKVTISCSGSSSNIGSNYISWYQQLPGTAPKLLIYDNDKRPAGIPDRFSGSKSGTSATLGITGLQTGDEADYYCGTWDTSLSVGEFGGGTKLTVL
notes: IgG
In assay [1], B1 displayed a Bmax of 293000 and an EC50 of 77.4 nM. For the same molecule, in assay [2], the “Median RL1-H of Expressing Singlets” value came to 218000. Moreover, the “MFI Ratio” value in assay [3] worked out at 946. For the same molecule, the “MFI Ratio” value in assay [4] was 946. In addition, the Subtraction in assay [5] amounted to 217000.

B2: GLP1R-222-090 (antibody, V domains shown)
VH: QVQLVESGGGVVQPGRSLRLSCAASGFSFSDYGIHWVRQAPGKGLEWVALISYEGSNKYYADSVKGRFTISRDNSKNTLYLQMNSLRAEDTAVYYCAKHMSMQEGAVTGEKQAAKEFIAWLVKGRVRADLVGDAFDVWGQGTLVTVSS
VL: QSVLTQPPSVSAAPGQKVTISCSGSSSNIADNYVSWYQQLPGTAPKLLIYDNNKRASGIPDRFSGSKSGTSATLGITGLQTGDEADYYCATWDNRLSAGVFGGGTKLTVL
notes: IgG
In the case of B2, the Bmax in assay [1] was determined as 1.08e+06. Further, the “Median RL1-H of Expressing Singlets” value in assay [2] is 227000. The “MFI Ratio” value in assay [3] and in assay [4] was 525 in each case. Moreover, the Subtraction in assay [5] is 227000.

B3: GLP1R-222-052 (antibody, V domains shown)
VH: QVQLVESGGGVVQPGRSLRLSCAASGFTFNNYPMHWVRQAPGKGLEWVAVISYDESNKYYADSVKGRFTISRDNSKNTLYLQMNSLRAEDTAVYYCAKHMSMQEGAVTGGGQAAKEFIAWLVKGRVRADLVGDAFDVWGQGTLVTVSS
VL: QSVLTQPPSVSAAPGQKVTISCSGSSSNIGKRSVSWYQQLPGTAPKLLIYDNNKRASGIPDRFSGSKSGTSATLGITGLQTGDEADYYCVTWDRSLSAGVFGGGTKLTVL
notes: IgG
In turn, B3 gave a Bmax in assay [1] of 228000. In assay [1], the response was half-maximal at 17.4 nM (EC50). The “Median RL1-H of Expressing Singlets” value in assay [2] was determined as 378000. Further, the “MFI Ratio” value in assay [3] and in assay [4] was 13.7 each time. The Subtraction in assay [5] turned out to be 350000.

B4: GLP1R-222-014 (antibody, V domains shown)
VH: QVQLVESGGGVVQPGRSLRLSCAASGFAFSNYGMHWVRQAPGKGLEWVSFISYDESNKYYADSVKGRFTISRDNSKNTLYLQMNNLRAEDTAVYYCAKHMSMQEGAVTGEWQAAKEFIAWLVKGRVRADLVGDAFDVWGQGTLVTVSS
VL: QSVLTQPPSVSAAPGQKVTISCSGSSSNIGNHDVSWYQQLPGTAPKLLIYDNNKRHSGIPDRFSGSKSGTSATLGITGLQTGDEADYYCGTWDTSLSAGVFGGGTKLTVL
notes: IgG
With B4, in assay [1], the Bmax is 213000 and the EC50 is 34.3 nM. Besides, in assay [2], the “Median RL1-H of Expressing Singlets” value stood at 237000. Also, the “MFI Ratio” value in assay [3] was 794. In addition, the “MFI Ratio” value in assay [4] turned out to be 794. Further, the Subtraction in assay [5] turned out to be 237000.

B5: GLP1R-222-081 (antibody, V domains shown)
VH: QVQLVESGGGVVQPGRSLRLSCAASGFTFDNYALHWVRQAPGKGLEWVALISYDAGNKYYADSVKGRFTISRDNSKNTLYLQMNSLRAEDTAVYYCAKHMSMQEGAVTGEGQAAKEFIAWLVKGFVRADLVGDAFDVWGQGTLVTVSS
VL: QSVLTQPPSVSAAPGQKVTISCSGSSSNIGSDYVSWYQQLPGTAPKLLIYDNNKRSSGIPDRFSGSKSGTSATLGITGLQTGDEADYYCGTWDESLRSWVFGGGTKLTVL
notes: IgG
In assay [1], B5 showed a Bmax of 194000 and an EC50 of 22.5 nM. In addition, in assay [2], the “Median RL1-H of Expressing Singlets” value came out at 221000. Moreover, the “MFI Ratio” value in assay [3] turned out to be 850. For the same molecule, the “MFI Ratio” value in assay [4] is 850. Besides, in assay [5], the Subtraction was 221000.

B6: GLP1R-222-023 (antibody, V domains shown)
VH: QVQLVESGGGVVQPGRSLRLSCAASGFSFSDYGMHWVRQAPGKGLEWVAFISYDANNKYYADSVKGRFTISRDNSKNTLYLQMNSLRAEDTAVYYCAKHMSMQEGAVTGEWQAAKEFIAWLVKGRVRADLVGDAFDVWGQGTLVTVSS
VL: QSVLTQPPSVSAAPGQKVTISCSGSSSNIGNNDVSWYQQLPGTAPKLLIYENTKRPSGIPDRFSGSKSGTSATLGITGLQTGDEADYYCGTWDAGLSTGVFGGGTKLTVL
notes: IgG
As to B6, in assay [1], the Bmax worked out at 220000 and it took 18.4 nM to reach a half-maximal effect (EC50). Moreover, in assay [2], the “Median RL1-H of Expressing Singlets” value turned out to be 241000. Further, in assay [3], the “MFI Ratio” value was determined as 778. In addition, the “MFI Ratio” value in assay [4] was 778. Moreover, the Subtraction in assay [5] was determined as 241000.

B7: GLP1R-222-082 (antibody, V domains shown)
VH: QVQLVESGGGVVQPGRSLRLSCAASGFTFSAYSMHWVRQAPGKGLEWVALISYDATNKYYADSVKGRFTISRDNSKNTLYLQMNSLRAEDTAVYYCAKHMSMQEGAVTGEFQAAKEFIAWLVKGRVRADLVGDAFDVWGQGTLVTVSS
VL: QSVLTQPPSVSAAPGQKVTISCSGSSSNIGSKYVSWYQQLPGTAPKLLIYDNNKRPSGIPDRFSGSKSGTSATLGITGLQTGDEADYYCGTWDISPSAWVFGGGTKLTVL
notes: IgG
The molecule B7 displayed a Bmax in assay [1] of 135000. In addition, the concentration giving a half-maximal response (EC50) in assay [1] is 11.5 nM. Also, the “Median RL1-H of Expressing Singlets” value in assay [2] is 224000. Also, the “MFI Ratio” value in assay [3] and in assay [4] was 711 in each case. For the same molecule, in assay [5], the Subtraction is 224000.

B8: GLP1R-222-012 (antibody, V domains shown)
VH: QVQLVESGGGVVQPGRSLRLSCAASGFTFNNYGMHWVRQAPGKGLEWVAVISDEGSNKYYADSVKGRFTISRDNSKNTLYLQMNSLRAEDTAVYYCAKHMSMQEGAVTGVGQAAKEFIAWLVKGRVRADLVGDAFDVWGQGTLVTVSS
VL: QSVLTQPPSVSAAPGQKVTISCSGSSSNIGNNDVSWYQQLPGTAPKLLIYDDDKRPSGIPDRFSGSKSGTSATLGITGLQTGDEADYYCGTWDTSLSVGEFGGGTKLTVL
notes: IgG
With B8, the Bmax in assay [1] came out at 234000. For the same molecule, a half-maximal response in assay [1] (EC50) required 23.1 nM. Further, in assay [2], the “Median RL1-H of Expressing Singlets” value was determined as 225000. In addition, the “MFI Ratio” value in assay [3] and in assay [4] was 775 throughout. In assay [5], the Subtraction was found to be 225000.
